The values that follow come from patent US20200062844A1.

In test [1] the target is hFcεR1α.MMH (human). The test is described as follows: SPR (Biacore 8k), antibody captured on anti-human Fc, hFcεR1α.MMH injected, 37°C. On the technique in general: In SPR one partner is held on a chip, and binding of the other changes the refractive index at the surface.
Test [2] has as its target mfFcεR1α.MMH (cynomolgus (Macaca fascicularis)). The test is described as follows: SPR (Biacore 8k), antibody captured on anti-human Fc, mfFcεR1α.MMH injected, 25°C.
The target in test [3] is hFcεR1α.MMH (human). The test is described as follows: SPR (Biacore 8k), antibody captured on anti-human Fc, hFcεR1α.MMH injected, 25°C.
Test [4] addresses mfFcεR1α.MMH (cynomolgus (Macaca fascicularis)). The experiment in a line: SPR (Biacore 8k), antibody captured on anti-human Fc, mfFcεR1α.MMH injected, 37°C.
Test [5] deals with human FcεR1α expressed on cells (human) (UniProt P12319). The test is described as follows: flow cytometry, 70 nM antibody on HEK293/hFcεR1α/hFcεR1β/hFcεR1γ cells, No IgE.
human FcεR1α expressed on cells (human), sequence (P12319 26-257): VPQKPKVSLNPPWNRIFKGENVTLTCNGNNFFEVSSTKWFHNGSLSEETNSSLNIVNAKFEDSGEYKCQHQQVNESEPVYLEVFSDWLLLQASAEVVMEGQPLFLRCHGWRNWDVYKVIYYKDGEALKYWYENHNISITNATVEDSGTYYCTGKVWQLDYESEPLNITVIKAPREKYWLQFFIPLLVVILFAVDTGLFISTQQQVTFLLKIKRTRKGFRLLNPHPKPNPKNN
The target of test [6] is monkey (cynomolgus) FcεR1α expressed on cells (cynomolgus). The test is described as follows: flow cytometry, 70 nM antibody on HEK293/mfFcεR1α/hFcεR1β/hFcεR1γ cells, No IgE.
Test [7] addresses human FcεR1α expressed on cells (human) (UniProt P12319). The experiment in a line: flow cytometry, 70 nM antibody on HEK293/hFcεR1α/hFcεR1β/hFcεR1γ cells pre-incubated with 70 nM human IgE.
The target of test [8] is monkey (cynomolgus) FcεR1α expressed on cells (cynomolgus). The test is described as follows: flow cytometry, 70 nM antibody on HEK293/mfFcεR1α/hFcεR1β/hFcεR1γ cells pre-incubated with 70 nM human IgE.
The target of test [9] is human CD3 expressed in Jurkat cells (human) (UniProt P07766). The test is described as follows: flow cytometry, 70 nM antibody on Jurkat/NFAT-luc cells, No IgE.
human CD3 expressed in Jurkat cells (human), sequence (P07766 23-207 limits assumed, chain 1 of 4): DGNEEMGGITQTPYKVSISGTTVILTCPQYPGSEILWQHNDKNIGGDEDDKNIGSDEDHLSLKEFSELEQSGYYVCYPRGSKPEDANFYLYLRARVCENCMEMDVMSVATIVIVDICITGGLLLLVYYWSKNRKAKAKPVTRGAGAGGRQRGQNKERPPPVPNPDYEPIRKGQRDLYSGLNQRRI
human CD3 expressed in Jurkat cells (human), sequence (chain, as listed by the source limits assumed, chain 2 of 4): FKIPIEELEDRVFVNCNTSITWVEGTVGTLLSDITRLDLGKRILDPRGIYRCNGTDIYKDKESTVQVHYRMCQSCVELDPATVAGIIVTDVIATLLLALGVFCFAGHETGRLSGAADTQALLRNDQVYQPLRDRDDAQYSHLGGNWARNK
human CD3 expressed in Jurkat cells (human), sequence (chain, as listed by the source limits assumed, chain 3 of 4): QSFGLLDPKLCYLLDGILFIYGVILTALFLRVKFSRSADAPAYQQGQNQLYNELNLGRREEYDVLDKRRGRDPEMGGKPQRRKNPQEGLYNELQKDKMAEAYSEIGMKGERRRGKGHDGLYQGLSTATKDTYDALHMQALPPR
human CD3 expressed in Jurkat cells (human), sequence (chain, as listed by the source limits assumed, chain 4 of 4): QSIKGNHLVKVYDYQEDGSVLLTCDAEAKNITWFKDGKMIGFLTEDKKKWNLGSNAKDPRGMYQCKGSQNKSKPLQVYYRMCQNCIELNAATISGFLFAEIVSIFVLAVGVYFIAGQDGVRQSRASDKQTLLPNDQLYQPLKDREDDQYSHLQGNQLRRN
For test [10] the target is unchanged. The test is described as follows: cell-based or functional assay.

hFcεR1α.MMH (human), sequence (chain, as listed by the source limits assumed): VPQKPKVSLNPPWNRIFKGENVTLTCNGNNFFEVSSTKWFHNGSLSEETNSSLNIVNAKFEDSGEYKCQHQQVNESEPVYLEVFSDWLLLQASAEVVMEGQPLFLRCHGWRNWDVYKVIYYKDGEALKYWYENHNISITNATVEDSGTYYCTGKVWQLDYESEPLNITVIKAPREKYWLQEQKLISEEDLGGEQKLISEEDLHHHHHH
mfFcεR1α.MMH (cynomolgus (Macaca fascicularis)), sequence (chain, as listed by the source limits assumed): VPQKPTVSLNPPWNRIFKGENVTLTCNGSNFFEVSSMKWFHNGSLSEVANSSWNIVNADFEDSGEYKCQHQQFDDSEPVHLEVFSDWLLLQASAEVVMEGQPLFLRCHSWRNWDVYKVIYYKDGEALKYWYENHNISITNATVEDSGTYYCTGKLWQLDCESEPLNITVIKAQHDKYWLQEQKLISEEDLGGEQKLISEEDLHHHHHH

As for Isotype Control mAb (antibody), the 600 nM hFcεR1α.MMH Bound (RU) in the test with hFcεR1α.MMH (human) [1] is -2 RU; with hFcεR1α.MMH (human) [3], -5 RU. For the same substance, the 600 nM mfFceR1a.MMH Bound (RU) in [2] and in test [4] was -9 RU throughout.
As for Human IgG4 Control (antibody), the Binding Ratio (MFI of Treated/MFI of Unstained) in test [5], in test [6], in test [7], in test [8] and in [9] was 1 each time. For the same substance, in test [10], the Fold Activation, Jurkat/NFAT-luc with HEK293/hFcεR1α/hFcεR1β/hFcεR1γ cells, 10 nM IgE is 1 fold. The Fold Activation, Jurkat/NFAT-luc with HEK293/hFcεR1α/hFcεR1β/hFcεR1γ cells, No IgE in test [10] came out at 1 fold.
In the case of Human IgG4 Stealth Control (antibody), the Binding Ratio (MFI of Treated/MFI of Unstained) in test [5] was determined as 1; in test [6] it was 1; in test [7], 1; in test [8], 1; in [9], 2. The substance further displayed a Fold Activation, Jurkat/NFAT-luc with HEK293/hFcεR1α/hFcεR1β/hFcεR1γ cells, 10 nM IgE in test [10] of 1 fold. In addition, the Fold Activation, Jurkat/NFAT-luc with HEK293/hFcεR1α/hFcεR1β/hFcεR1γ cells, No IgE in test [10] came out at 1 fold.
